From the DeepSol protein solubility set

Assay: soluble on expression in E. coli; label from the status in PepcDB or PDB records

Sequence	soluble on expression in E. coli
SSSTSHSSLKSPSHMEKYPQKEKTKEDLDSRSNLHLPETKFSELSKLKNDDMEKANHIESVIKSNLPNCANSDTDFMGLFKSSRYDPSISFSGMSLSDTMTLRGSVQNKLNPRPGKVVIYSEPDVSEKCIEVFSDIQDCSSWSLSPVILIKVVRGCWILYEQPNFEGHSIPLEEGELELSGLWGIEDILERHEEAESDKPVVIGSIRHVVQDYRVSHIDLFTEPEGLGILSSYFDDTEEMQGFGVMQKTCSMKVHWGTWLIYEEPGFQGVPFILEPGEYPDLSFWDTEAAYIGSMRPLKMGGRKVEFPTDPKVVVYEKPFFEGKCVELETGMCSFVMEGGETEEATGDDHLPFTSVGSMKVLRGIWVAYEKPGFTGHQYLLEEGEYRDWKAWGGYNGELQSLRPILGDFSNAHMIMYSEKNFGSKGSSIDVLGIVANLKETGYGVKTQSINVLSGVWVAYENPDFTGEQYILDKGFYTSFEDWGGKNYKISSVQPICLDSFTGPRRRNQIHLFSEPQFQGHSQSFEETTSQIDDSFSTKSCRVSGGSWVVYDGENFTGNQYVLEEGHYPCLSAMGCPPGATFKSLRFIDVEFSEPTIILFEREDFKGKKIELNAETVNLRSLGFNTQIRSVQVIGGIWVTYEYGSYRGRQFLLSPAEVPNWYEFSGCRQIGSLRPFVQKRIYFRLRNKATGLFMSTNGNLEDLKLLRIQVMEDVGADDQIWIYQEGCIKCRIAEDCCLTIVGSLVTSGSKLGLALDQNADSQFWSLKSDGRIYSKLKPNLVLDIKGGTQYDQNHIILNTVSKEKFTQVWEAMVLYT	soluble
MGSDKIHHHHHHVRVNVKSHGPRATFPAAPCLHRNPKVKLRLFPQEPAGLHLLSQMARQIVLATATLAEILGVPATEHNRLVEDMHDHEAKSAELHFALLTHMRTSFVNPLPREDMYALSRYLNEAMEKLDAAAELVALYKLERLPRRAADQLEIISRQAELTVDAMRQLNNLDDLEDYWIEILRLAKRAERTHRVWVADMIKDMKWAQYARNRDIANQLVEVTKDMRRIATQVGSIIVKES	not soluble
MGYLVSKHLALSLGSSKRGYILSPIMPPVVIVEDDGPGYPFDIYYSEGKRVLTIVHRANPEREVQDEYLHTLSLWLREMGVGRVILVGGLNMEFMPREEKHGYRWLANRHYKGPKLEAPTMEAGLGVVGPLALLYMYLDYLGVPAAMVLPYSVAERVDYEAAIRGLKVIGGSIIGVEIPTDEIEKMASMQREILETISRMIEGEEEKESGGIYM	not soluble
MSKFYSEQFKRDAVALYENNENLSLAAAAAELRVNRASLHQWKKELGTGKRTRMIEAKAQAEAASDAERIRALEKENAKLREERDILRKAAKYFAEETSWLEHHHHHH	not soluble
MTKIGINGFGRIGRNVFRAALNNSEVEVVAINDLTDAKTLAHLLKYDTVHGTLNAEVSANENSIVVNGKEIKVIAERDPAQLPWSDYGVEVVVESTGRFTKKSDAEKHLGGSVKKVIISAPASDEDITVVMGVNHEQYDAANHNVVSNASCTTNCLAPFAKVLNEKFGVKRGMMTTIHSYTNDQQILDLPHKDLRRARAAAENMIPTSTGAAKAVALVLPELKGKLNGGAVRVPTANVSLVDLVVELDKEVTVEEVNAAFKAAAEGELKGILGYSEEPLVSIDYNGCTASSTIDALSTMVMEGNMVKVLSWYDNETGYSNRVVDLAAYMTSKGL	soluble
MNFRTGQPSDAAALAAISIEVWLGTYMRKGVSAFFAEYALNEFTSTKMASLLKDPNEHVIVSENEGGIDAFIRLGQGRAAPVSGCSTLEIATLYVQPRHHRRGLGRALLEQGLAYARQASAPSVWLTTNSENAPAIAFYLEQGFEKVGTTHFNIGDQ	not soluble
MSSEFISKVDKEARRKAANILRDKFLNLVEQLKKGEPLVMEIPMRTLSNAIYDEKRKLLLLGEKKLRRNFLDLNEAKRFMQTVLMASIIYDALVSDEYPTIRDLYYRGKHSLLLKSIEGNKIVSEENTWDEQKESDSVIVDIEVFTSLLREEMLILSKEKGKVVGNLRIRSGNDVIDLSKTGHGAYAIEPTPDLIDFIDVDAEFVLVVEKDAVFQQLHRAGFWKQYKSILITSAGQPDRATRRFVRRLNEELKLPVYILTDADPYGWYIFSVFRIGSISLSYESERLATPDAKFLGVSMGDIFGNSRKKPYLSEAERKNYIIKAKDADIKRAEEIKNYEWFKTKAWQEEINTFLQRKAKLEIEAMASKGLKFLAFQYIPEKITNKDYIA	soluble
AHHHHHHGSDIKPGKITVQANPNMPEEIANLFRKQHYELVGRHSGVKLCHWLKKSLTEGRFCYKQKFYGIHSHRCLQMTPVLAWCTHNCIFCWRPMETFLGTEVPEPWDDPAFIVEESIKAQRKLLVGYKGNPKVDKKKFEEAWEPKHAAISLSGEPMLYPYMGDLVEEFHKRGFTTFIVTNGTVPESLREMIKDDKLPTQLYVSLTAPDIESYNKVNIPMIPDGWEKILEFLELMRDIPTRTVVRLTLVKGENMHNPEGYARLIMKARPMFVEAKAYMFVGFSRNRLTINNMPSHEDIREFAEALVKYLPGYHIEDEYEPSRVVLIMRDDVDPSGTGLEGRFIKH	not soluble
MSLPFITKISTQKKNTERFNIFLDDKYAFSVDADVLVKFELKKGKELDDLDIIEIQYGDEVKKGFNRALDFLSYRMRSTKEVEDHLKKKETSPPVIAEVIHRLNDYKYLNDQEFAAAYVSTHKKTNGKGPDVLFRELRAKGIDDDTIKEALSSFSFEDQTREAVKHVEKLLKKDKKLSTKELKQRAQLQLQRKGFSFDVISAAMDQIEYENDEDTEKEALRLHAEKAFRKYRYDGSYESAMKVKQFLFRKGFSLDLIEQLLQEEEYEGHHHHHH	soluble
MGSDKIHHHHHHMPGNSSGVAAVERAVSMLEAFTDVDYSLTLGELARRTELDKSTVLRIARSLAKSSMLVRNDDASWRLGPKLVRLGGLYQSTFKSSAIVEPLLAQISDESGESAAVYVKEGVVRVCLHRHDSTQSIRHSARVGDAMPLDRGAPGRVILAFTGSSGKLYDDIRAKGFHVTIGERDPQVASVAVPVYRDGQALFGSLALTGPPSRFNEEAVSKNLEILRVAARKLSAALGGDPG	not soluble
ANQLRELKQTHTYTVFGYTDGGFAVISADDLAPELLGVSESNFVETDNPSFKWWLKAIDEVITNAVKSNKPLNVIKPDPSKYAAEVSTLLTTTWGQQMPYNKLLPKTKKGRLITGAVATATAQVLNYFKYPVRGIGSHTVHYPANDPSGVAISADFGNTTYDWANMKDNYSGNYTEAEANAVATLMLHCGVASEMQYGGPNEGSGAYMTDCAAGLRTYFGFTDAEYITRANYTDEQWMDIVFSELTKGHPLIYGGVSPGSMGQDAGHAFVIDGYNKAGLVSVNWGWNGDVDGYYKIDLLNPGNMYSFTAEQDMVRGVYGKP	soluble
ENAIIGVNDHTLVTESDGRRWVTREPAIVYFHKKYWFNIIAMIRDNGTSYYCNMASPYYLDEEALKYIDYDLDVKIFTDGEKRLLDVEEYERHKRKMNYS	not soluble
MHHHHHHSSGVDLGTENLYFQSNAMSSKIFCKSWGAEYIAADVVRFRLWATGQQKVMLRLAGKDQEMQANGDGWFTLDVAGVTPGTEYNFVLSDGMVVPDPASRAQKTDVNGPSYVVDPGSYTWRNTGWKGSRWEQAVVYEMHTGTFTPEGTFRAAIAKLPYLAELGVTVIEVMPVAQFGGERGWGYDGVLLYAPHSAYGTPDDFKAFIDAAHGYGLSVVLDIVLNHFGPEGNYLPLLAPAFFHKERMTPWGNGIAYDVDAVRRYIIEAPLYWLTEYHLDGLRFDAIDQIEDSSARHVLVEIAQRIREDITDRPIHLTTEDSRNIISLHPRDQDGNAPLFTAEWNDDFHNAVHVFATGETQAYYNDFADAPEKHLARALAEGFAYQGEISPQTGEPRGVKSTGQPPVAFVDFIQNHDQVGNRAQGDRLITLAGAERTKVLLATLLLSPHIPLLFMGEEYGESRPFLFFTDFHGDLARAVREGRAKEFADHAGENVPDPNAPETFQRSKLNWKQQHSEEGKAWLAFTRELLLLRQKHIVPLLSAARESSGTVLQTAPGFIAVSWRFPGGTLSLALNISATTVLLPDLPGKTLFAWPNESTGSLSQHSLIVRLAQGESAS	soluble
